From the supplement of paper PMC10567573

B1: TRIM55 (parent)
chain: YKSFSKEQQTMDNLEKQLICPICL

Variants of: B1
Assay: protein stability index of a GFP-peptide fusion (GPS, HEK-293T) (PSI 1-6); higher = more stable
Details: c terminus: a fixed tail appended
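Note: lentivirally expressed fusions sorted by FACS into six bins by GFP to DsRed ratio, PSI derived from sequencing read proportions per bin multiplied by bin number.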

| Variant | protein stability index |
| --- | --- |
| YKSFSKEQQTMDNLEKQTICPICL | 2.54 |
| YKSFSKEQQTMDNLEKQKICPICL | 2.48 |
| YKSFSKEQQTMDNLEKQYICPICL | 2.18 |
| YKSFSKEQQTMDNLEKQRICPICL | 3.17 |
| YKSFSKEQQTMDNLEKQHICPICL | 2.75 |
| YKSFSKEQQTMDNLEKQGICPICL | 2.84 |
| YKSFSKEQQTMDNLEKQWICPICL | 1.95 |
| YKSFSKEQQTMDNLEKQAICPICL | 2.81 |
| YKSFSKEQQTMDNLEKQFICPICL | 2.55 |
| YKSFWKEQQTMDNLEKQLICPICL | 1.37 |
| YKSFLKEQQTMDNLEKQLICPICL | 1.34 |
| YKSFIKEQQTMDNLEKQLICPICL | 1.96 |
| YKSFNKEQQTMDNLEKQLICPICL | 2.4 |
| YKSFVKEQQTMDNLEKQLICPICL | 1.99 |
| YKSFFKEQQTMDNLEKQLICPICL | 1.71 |
| YKSFRKEQQTMDNLEKQLICPICL | 2.11 |
| YKSFTKEQQTMDNLEKQLICPICL | 1.92 |
| YKSFGKEQQTMDNLEKQLICPICL | 2.13 |
| YKSFMKEQQTMDNLEKQLICPICL | 2.11 |
| YKSFSKEQQTMDNLEKQLICPMCL | 2.31 |
| YKSFSKEQQTMDNLEKQLICPHCL | 2.15 |
| YKSFSKEQQTMDNLEKQLICPYCL | 2.55 |
| YKSFSKEQQTMDNLEKQLICPNCL | 3.48 |
| YKSFSKEQQTMDNLEKQLICPTCL | 2.55 |

| Variant | protein stability index |
| --- | --- |
| YKSFSKEQQTMDNLEKQLICPDCL | 2.78 |
| YKSFSKEQQTMDNLEKQLICPGCL | 2.9 |
| YKSFSKEQQTMDNLEKQLICPFCL | 2.21 |
| YKSFSKEQQTMDNLEKQLICPQCL | 2.03 |
| YKSFSKEQQTMDNLEKQLICPCCL | 2.66 |
| YKSFSKEQQTMDNLEKQLICPACL | 2.23 |
| YKSFSKEQQTMDNLEKQLICPPCL | 2.7 |
| YKSFSKEQQTMPNLEKQLICPICL | 2.43 |
| YKSFSKEQQTMYNLEKQLICPICL | 2.57 |
| YKSFSKEQQTMCNLEKQLICPICL | 2.17 |
| YKSFSKEQQTMMNLEKQLICPICL | 2.26 |
| YKSFSKEQQTMRNLEKQLICPICL | 1.93 |
| YKSFSKEQQTMWNLEKQLICPICL | 2.11 |
| YKSFSKEQQTMENLEKQLICPICL | 2.59 |
| YKSFSKEQQTMDNLEKQLICSICL | 3.16 |
| YKSFSKEQQTMDNLEKQLICVICL | 2.08 |
| YKSFSKEQQTMDNLEKQLICNICL | 1.24 |
| YKSFSKEQQTMDNLEKQLICTICL | 1.77 |
| YKSFSKEQQTMDNLEKQLICWICL | 2.53 |
| YKSFSWEQQTMDNLEKQLICPICL | 2.51 |
| YKSFSNEQQTMDNLEKQLICPICL | 2.04 |
| YKSFSSEQQTMDNLEKQLICPICL | 2.14 |
| YKSFSLEQQTMDNLEKQLICPICL | 2.91 |
| YKSFSHEQQTMDNLEKQLICPICL | 1.85 |

| Variant | protein stability index |
| --- | --- |
| YKSFSREQQTMDNLEKQLICPICL | 2.63 |
| YKSFSPEQQTMDNLEKQLICPICL | 2.05 |
| YKSFSGEQQTMDNLEKQLICPICL | 2.15 |
| YKSFSVEQQTMDNLEKQLICPICL | 1.49 |
| YKSFSKEQQTMDNLEKQLICPIVL | 1.7 |
| YKSFSKEQQTMDNLEKQLICPIIL | 1.93 |
| YKSFSKEQQTMDNLEKQLICPIQL | 3.13 |
| YKSFSKEQQTMDNLEKQLICPIWL | 1.65 |
| YKSFSKEQQTMDNLEKQLICPIEL | 2.85 |
| YKSFSKEQQTMDNLEKQLICPILL | 1.72 |
| YKSFSKEQQTMDNLEKQLICPIHL | 2.19 |
| YKSFSKEQQTMDNLEKQLICPITL | 2 |
| YKSFSKEQQTMDNLEKQLICPIYL | 2.04 |
| YKSFSKGQQTMDNLEKQLICPICL | 1.53 |
| YKSFSKRQQTMDNLEKQLICPICL | 1.87 |
| YKSFSKQQQTMDNLEKQLICPICL | 1.67 |
| YKSFSKSQQTMDNLEKQLICPICL | 1.67 |
| YKSFSKYQQTMDNLEKQLICPICL | 1.72 |
| YKSFSKIQQTMDNLEKQLICPICL | 2.4 |
| YKSFSKDQQTMDNLEKQLICPICL | 2.29 |
| YKSFSKKQQTMDNLEKQLICPICL | 2.25 |
| YKSFSKAQQTMDNLEKQLICPICL | 2.08 |
| YKSFSKFQQTMDNLEKQLICPICL | 1.87 |
| YKSFSKMQQTMDNLEKQLICPICL | 2.37 |

| Variant | protein stability index |
| --- | --- |
| YKSFSKEGQTMDNLEKQLICPICL | 2.83 |
| YKSFSKEIQTMDNLEKQLICPICL | 2.1 |
| YKSFSKEPQTMDNLEKQLICPICL | 2 |
| YKSFSKEDQTMDNLEKQLICPICL | 2.07 |
| YKSFSKEVQTMDNLEKQLICPICL | 2.09 |
| YKSFSKESQTMDNLEKQLICPICL | 2.29 |
| YKSFSKEHQTMDNLEKQLICPICL | 2.37 |
| YKSFSKEYQTMDNLEKQLICPICL | 2 |
| MKSFSKEQQTMDNLEKQLICPICL | 2.5 |
| CKSFSKEQQTMDNLEKQLICPICL | 2.7 |
| SKSFSKEQQTMDNLEKQLICPICL | 3.02 |
| RKSFSKEQQTMDNLEKQLICPICL | 2.83 |
| DKSFSKEQQTMDNLEKQLICPICL | 3.46 |
| HKSFSKEQQTMDNLEKQLICPICL | 3.12 |
| EKSFSKEQQTMDNLEKQLICPICL | 2.48 |
| FKSFSKEQQTMDNLEKQLICPICL | 2.02 |
| YKSFSKEQQTMDNLEKYLICPICL | 2.02 |
| YKSFSKEQQTMDNLEKGLICPICL | 2.16 |
| YKSFSKEQQTMDNLEKILICPICL | 1.65 |
| YKSFSKEQQTMDNLEKNLICPICL | 1.89 |
| YKSFSKEQQTMDNLEKFLICPICL | 2.59 |
| YKSFSKEQQTMDNLEKMLICPICL | 1.48 |
